# Where no end group is shown, it is not given here.
# T1: CCK2R on the CCK2R overexpressing cell line AGS-TR (UniProt P32239 1-447, limits assumed)
# T1 sequence (looked up): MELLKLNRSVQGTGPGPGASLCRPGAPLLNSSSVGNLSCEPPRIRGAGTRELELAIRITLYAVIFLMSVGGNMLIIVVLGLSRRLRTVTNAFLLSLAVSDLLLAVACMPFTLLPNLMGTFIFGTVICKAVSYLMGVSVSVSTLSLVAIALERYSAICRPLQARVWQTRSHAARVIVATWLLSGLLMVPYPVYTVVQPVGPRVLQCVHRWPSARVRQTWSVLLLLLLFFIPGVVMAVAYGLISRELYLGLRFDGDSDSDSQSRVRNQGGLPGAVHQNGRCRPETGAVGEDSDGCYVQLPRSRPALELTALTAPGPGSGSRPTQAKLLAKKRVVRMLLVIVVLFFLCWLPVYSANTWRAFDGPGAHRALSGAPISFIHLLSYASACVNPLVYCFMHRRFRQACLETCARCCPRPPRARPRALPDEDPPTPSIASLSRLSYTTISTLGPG
# T2: biotinylated 10 amino acid peptide from the N terminal portion of Gastrin 17 (human, UniProt P01350 76-85, limits assumed, ends and bridges not checked)
# T2 construct: domain: 10 amino acid peptide from the N terminal portion of Gastrin 17; Panning target; also called biotinylated peptide; biotinylated peptides
# T2 peptide (looked up): QGPWLEEEEE-biotin
# B1: human gastrin (h-G17) (ligand, UniProt P01350 76-92, looked up)
# peptide: QGPWLEEEEEAYGWMDF
# How the values were obtained:
# [1] = molecular target: T1, CCK2R on the CCK2R overexpressing cell …; experiment: cell-based or functional assay
# [2] = molecular target: B1; experiment: cell-based or functional assay
# [3] = molecular target: B1; experiment: KD measurement of reformatted IgG; method and antigen form not stated in the example; reformatted IgG, Table 2 lead selection
# [4] = molecular target: B1; experiment: cell-based or functional assay
# [5] = molecular target: T2, biotinylated 10 amino acid peptide from …; experiment: SPR, measured as described previously (BIACORE, biotinylated peptide on streptavidin chip); reformatted IgG
# Experimental: (§1) Affinities of the parental (XPA067) and matured antibody fragments were determined by surface plasmon resonance using a BIACORE® 2000. Affinity constants were calculated from the kinetic rate constants for antibody binding to biotinylated peptide immobilized on a Streptavidin sensor chip.
# (§2) A very low density of peptide was immobilized in order to avoid bivalent binding by the antibodies to the sensor chip. Antibodies were tested in triplicate at six concentrations of three-fold serial dilutions. Data were analyzed using BiaEval Software.
# Antibody affinity was measured as described previously.
# [6] = molecular target: T2, biotinylated 10 amino acid peptide from …; experiment: SPR (BIACORE 2000), antibody over low-density biotinylated peptide on streptavidin chip; from kinetic rate constants; parental fragment, Table 3 comparator to the matured fragments
# Experimental: as §1, §2
# [7] = molecular target: B1; experiment: summary sentence of the filing's own data; method not given; antibody not named
# [8] = molecular target: B1; experiment: KD measurement of reformatted IgG; method and antigen form not stated in the example
Binder,Ca flux neutralization at 2x molar excess [2] [%],Ca flux neutralization at roughly 100 fold molar excess over gastrin (1 nM) [2] [%],also measured
B1,–,–,calcium flux EC50 (AGS-TR cells) [1]: 1 nM
"XPA061 (phage display-derived antibody fragment) (antibody, V domains shown) VH: QVQLVQSGAEVKKPGSSVKVSCKISGGTFSSHAIGWVRQAPGQGLEWIGRIIPSLDLDNSAPKFQDRVTITADKFTNTAYMELRNLRPEDTAFYYCTGDPLYNWTGAHWGRGTMVTVSS VL: QAVLTQPSSLSASPGASASLTCTLRSDINVGTYRIYWYQQKSGSPPQYLLRYRSDSDKQQGSGVPSRFSGSKDASANAGILLISGLQSEDEADYYCMIWHSSAWVFGGGTKVTVL",~70,~80,–
"XPA067 reformatted whole human IgG (antibody, V domains shown, also called parent antibody XPA067; parental a-gastrin mAb) VH: EVQLVQSGAEVKKPGSSVTVSCKASGGTFDKYAIGWVRQAPGQGLEWMGRIIPTLDLANSAQKFQDRVTITADKFTTTVYMELTNLRPEDTAMYYCTRDPLYNWSGSYWGRGTMVTVSS VL: QAVLTQPSSLSASPGASASLTCTLRSGINVGTYRIYWYQQKPGSPPQYLLRYKSDSDKQQGSGVPSRFSGSKDASANAGILLISGLQSEDEADYYCMIWHSSAWVFGGGTKLTVL",–,–,Kd [3]: 3.9 nM; Ca Flux IC50 [4]: 0.76 nM; pERK IC50 (nM) [4]: 0.56 nM; Kd [5]: ~5 nM
"XPA067 (parental antibody fragment) (antibody, V domains shown, also called parental (XPA067)) VH: EVQLVQSGAEVKKPGSSVTVSCKASGGTFDKYAIGWVRQAPGQGLEWMGRIIPTLDLANSAQKFQDRVTITADKFTTTVYMELTNLRPEDTAMYYCTRDPLYNWSGSYWGRGTMVTVSS VL: QAVLTQPSSLSASPGASASLTCTLRSGINVGTYRIYWYQQKPGSPPQYLLRYKSDSDKQQGSGVPSRFSGSKDASANAGILLISGLQSEDEADYYCMIWHSSAWVFGGGTKLTVL",< 20,~80,Kd [6]: ~5 nM
"a monoclonal antibody with affinity of about 10^-9 M (anti-gastrin, not named in the sentence) (antibody, V domains shown) VH: EVQLVQSGAEVKKPGSSVTVSCKASGGTFDKYAIGWVRQAPGQGLEWMGRIIPTLDLANSAQKFQDRVTITADKFTTTVYMELTNLRPEDTAMYYCTRDPLYNWSGSYWGRGTMVTVSS VL: QAVLTQPSSLSASPGASASLTCTLRSGINVGTYRIYWYQQKPGSPPQYLLRYKSDSDKQQGSGVPSRFSGSKDASANAGILLISGLQSEDEADYYCMIWHSSAWVFGGGTKLTVL",–,–,Kd [7]: ~1 nM
"XPA081 (phage display-derived antibody fragment) (antibody, V domains shown) VH: EVQLVQSGAEVKKPGSSVTVSCKASGGTFDKYAIGWVRQAPGQGLEWMGRIIPSLDLDNSAQKFQDRVTITADKFTTTVYMKLSNLRPEDTAIYYCTRDPLYQWSGSYWGKGTLVTVSS VL: QAVLTQPSSLSASPGASASLTCTLRSDINVGTYRIYWYQQKPGSPPQYLLRYKSDSDKQQGSGVPSRFSGSKDASANAGILLISGLQSGDGADYYCMIWHSSAWVFGGGTKLTVL",< 20,~80,–
"XPA061 reformatted whole human IgG (antibody, V domains shown) VH: QVQLVQSGAEVKKPGSSVKVSCKISGGTFSSHAIGWVRQAPGQGLEWIGRIIPSLDLDNSAPKFQDRVTITADKFTNTAYMELRNLRPEDTAFYYCTGDPLYNWTGAHWGRGTMVTVSS VL: QAVLTQPSSLSASPGASASLTCTLRSDINVGTYRIYWYQQKSGSPPQYLLRYRSDSDKQQGSGVPSRFSGSKDASANAGILLISGLQSEDEADYYCMIWHSSAWVFGGGTKVTVL",–,–,Kd [8]: 9.9 nM; Ca Flux IC50 [4]: 1.34 nM; pERK IC50 (nM) [4]: 0.42 nM
"XPA063 (phage display-derived antibody fragment) (antibody, V domains shown) VH: EVQLVQSGAEVKKPGSSVTVSCKASGGTFDKYAIGWVRQAPGQGLEWMGRIIPSLDLDNSAQKFQDRVTITADKFTTTVYMKLSNLRPEDTAMYYCTRDPLYNWSGSYWGRGTMVTVSS VL: QAVLTQPSSLSASPGASASLTCTLRSGINVGTYRIYWYQQKPGSPPQYLLRYKSDSDKQQGSGVPSRFSGSKDASANAGILLISGLQSEDEADYYCMIWHSSAWVFGGGTKLTVL",< 20,> 70,–
"XPA065 (phage display-derived antibody fragment) (antibody, V domains shown) VH: EVQLVQSGAEVKKPGSSVTVSCKASGGTFDKYAIGWVRQAPGQGLEWMGRIIPTLDLANSAQKFQDRVTITADKFTTTVYMELTNLRPEDTAMYYCTRDPLYNWSGSYWGRGTMVTVSS VL: QAVLTQPSSLSASPGTSASLTCTLRSGINVGSYRIYWYQQRPGSPPQYLLRYKSDSDKQQGSGVPSRFSGSKDASANAGVLFISGLQSDDEADYYCMIWHNSAWVFGGGTKLTVL",< 20,~80,–
